Patent US7056715B1, “GST sequences from soybean and their use in the production of herbicide resistant plants” (Syngenta Limited, priority 1999, dated 2006)

T1: Glycine max (soybean) homoglutathione synthetase, recombinant, C-terminal HIS-tag (pET-MS4-His), SEQ ID No. 1 (Glycine max, UniProt Q9M426)
T1 sequence (Q9M426 1-499): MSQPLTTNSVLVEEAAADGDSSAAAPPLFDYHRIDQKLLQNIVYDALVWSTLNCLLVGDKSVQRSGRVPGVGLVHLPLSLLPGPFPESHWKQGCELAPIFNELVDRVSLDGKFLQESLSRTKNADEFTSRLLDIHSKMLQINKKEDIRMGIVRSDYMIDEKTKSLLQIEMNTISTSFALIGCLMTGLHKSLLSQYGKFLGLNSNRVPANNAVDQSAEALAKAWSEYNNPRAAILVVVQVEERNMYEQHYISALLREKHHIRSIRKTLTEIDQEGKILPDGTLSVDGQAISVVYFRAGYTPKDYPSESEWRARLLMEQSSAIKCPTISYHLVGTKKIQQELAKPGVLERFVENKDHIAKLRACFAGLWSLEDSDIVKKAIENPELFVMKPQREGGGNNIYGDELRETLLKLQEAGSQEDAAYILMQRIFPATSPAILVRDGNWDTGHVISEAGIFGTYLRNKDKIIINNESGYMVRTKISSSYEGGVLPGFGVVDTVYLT

B1: Glycine max (soybean) homoglutathione synthetase, recombinant, C-terminal HIS-tag (pET-MS4-His), SEQ ID No. 1 (Glycine max) (protein)
chain: T1 sequence (Q9M426 1-499)
B2: GST 3.3: Recombinant soybean Glutathione-S-transferase 3.3, SEQ ID No. 10; may also be referred to as GST 3.6 (protein)
chain: MAERDLRLLGAWFSPFALRVQIALNLKGLDYEVVEETLNPKSELLLKSNPVHKKIPVFFHGDKVICESAIIVEYIDEVWSNNALSILPQNAYDRANARFWVSYIDDKWLTSLKSVLATEDDEAKKLHFEQAEEVLEKVEEVFNKCSEGKAYFGGDTIGFVDIGFGSFLSFIRVSENMNERKLLDETKYPGLTLWAETFAADPAVKGLLPETEKLVEFAKILQLKWAAAAAAK
modifications: Glycine max
B3: GST 2.6: Recombinant soybean Glutathione-S-transferase 2.6, SEQ ID No. 7 (protein)
chain: MSSSQEEVTLLGVVGSPFLHRVQIALKLKGVEYKYLEDDLNNKSDLLLKYNPVYKMIPVLVHNEKPISESLVIVEYIDDTWKNNPILPSDPYQRALARFWAKFIDDKCVVPAWKSAFMTDEKEKEKAKEELFEALSFLENELKGKFFGGEEFGFVDIAAVLIPIIQEIAGLQLFTSEKFPKLSKWSQDFHNHPVVNEVMPPKDQLFAYFKARAQSFVAKRKN
modifications: Glycine max
B4: GST 3.1: Recombinant soybean Glutathione-S-transferase 3.1, SEQ ID No. 8 (protein)
chain: MAEQDKVILHGMWASPYAKRVELALNFKGIPYEYVEEDLRNKSDLLLKYNPVHKKVPVLVHNGKAIAESMVILEYIDETWKDGPKLLPSDSYKRAQARFWCHFIQDQLMESTFLVVKTDGEAQQKAIDHVYEKLKVLEDGMKTYLGEGNAIISGVENNFGILDIVFCALYGAYKAHEEVIGLKFIVPEKFPVLFSWLMAIAEVEAVKIATPPHEKTVGILQLFRLSALKSSSATE
modifications: Glycine max
B5: GST 3.2: Recombinant soybean Glutathione-S-transferase 3.2, SEQ ID No. 9 (protein)
chain: MAEVKLHGFWYSPYTLRVVWTLKLKDIPYQNIEEDRYNKSLQLLEYNPVYKKTPVLVHNGKPLCESMLIVEYIDEIWAHNSLLPADPYERALARFWVKYADDDMFSAVIAFFLSNNDEEREKSIEKIWEHLRVVENQCFGDQKKFFGGDIINIMDIAFGSIFKILVVAEDILDAKVLEDEKFPHLHSWYNNFKDVAVIKENLPDHEKMVAFAKFIREKRLACT
modifications: Glycine max

Key:
[1] = target: T1, Glycine max (soybean) homoglutathione synthetase, recombinant, C-terminal HIS-tag (pET-MS4-His), SEQ ID No. 1; test: Activity of recombinant homoglutathione synthetase (addition of glycine or β-alanine onto γ-glutamylcysteine; monobromobimane derivatisation); assay type: biochemical; conditions: 250 mM Tris-HCl pH 8.0, 50 mM KCl, 20 mM MgCl2, 5 mM DTT, 10 mM ATP, 1 mM γ-glutamylcysteine; 30° C.
Procedure: (§1) A 5′ Nco 1 and 3′ Xho 1 restriction enzyme site were introduced into the homoglutathione synthetase cDNA via PCR using primers MS4-Nco (SEQ ID No. 19) and MS-4-HIS (SEQ ID No. 20). Additionally, the use of the MS4-HIS primer provided a C-terminal HIS-tag to assist purification of the enzyme. 5.2 The resulting PCR fragment was digested with Nco1 and Xho 1 and ligated into similarly digested pET-24d. This vector was termed pET-MS4-His. The purification of homoglutathione synthetase was performed using the following method. E. coli BL21 (DE3) harbouring the pET-MS4-His plasmid (section 1.3) were grown at 30° C. until OD600=0.5, after which isopropyl-β-D-thiogalactoside (IPTG) was added to a final concentration of 0.1 mM. Following a 3 hour incubation the bacteria were collected by centrifugation, re-suspended in buffer A (20 mM Tris, 0.5 M NaCl, 5 mM imidazole pH 8.0) and lysed. […] 5.3 The eluted protein was concentrated using a Centriplus 30 (Amicon™) spin column and re-suspended in buffer A prior to application onto a 1 ml HiTrap chelating column (Phamacia™), pre-charged with NiSO4 and equilibrated as described previously. Affinity bound protein was then recovered using an increasing concentration of 20–200 mM imidiazole and the presence of His-tagged recombinant homoglutathione synthetase was detected using His-tagged antibodies according to known procedures. […]

[2] = substrate: NCC(=O)O; test: purified protein, by the assay type; assay type: biochemical, Glycine max (soybean); conditions: other: 250 mM Tris-HCl pH 8.0, 50 mM KCl, 20 mM MgCl2, 5 mM DTT, 10 mM ATP, 1 mM γ-glutamylcysteine, 30° C.
Procedure: as §1

[3] = substrate: NCCC(=O)O; test: purified protein, by the assay type; conditions: other: 250 mM Tris-HCl pH 8.0, 50 mM KCl, 20 mM MgCl2, 5 mM DTT, 10 mM ATP, 1 mM γ-glutamylcysteine, 30° C.
[4] = GST activity of purified recombinant protein toward acifluorfen; assay type: biochemical; conditions: recombinant enzyme, ±SE, n=2; for GST activity toward acifluorfen, GSH: thiol GSH; for GST activity toward acifluorfen, hGSH: thiol hGSH
Procedure: (§2) 4.2 Nde I or Nco I sites were introduced as appropriate into the 5′ end cDNAs encoding glutathione S-transferase and Bam H1 at the 3′ end using PCR. The cDNA was then cloned into pET-24a or pET-24d as appropriate. The resulting plasmids were introduced into E. coli BL21 (DE3) using standard bacterial transformation procedures known to the skilled artisan. Expression and purification of the recombinant GST was performed using anion-exchange chromatography and S-Hexyl-glutathione affinity chromatography according to the methods known in the art (for example, Skipsey et al., 1997). GST activity of the purified recombinant protein toward CDNB, acetochlor, acifluorfen, chlorimuron-ethyl, fluorodifen. fomesafen and metolachlor in the presence of both glutathione and homoglutathione was performed via assays which are described in Andrews et al., 1997 and Skipsey et al., 1997.

[5] = GST activity of purified recombinant protein toward metolachlor; assay type: biochemical; conditions: recombinant enzyme, ±SE, n=2; for GST activity toward metolachlor, GSH: thiol GSH; for GST activity toward metolachlor, hGSH: thiol hGSH
Procedure: as §2

[6] = GST activity of purified recombinant protein toward fomesafen; assay type: biochemical; conditions: recombinant enzyme, ±SE, n=2; for GST activity toward fomesafen, GSH: thiol GSH; for GST activity toward fomesafen, hGSH: thiol hGSH
Procedure: as §2

[7] = GST activity of purified recombinant protein toward acetochlor; assay type: biochemical; conditions: recombinant enzyme, ±SE, n=2; for GST activity toward acetochlor, GSH: thiol GSH; for GST activity toward acetochlor, hGSH: thiol hGSH
Procedure: as §2

[8] = GST activity of purified recombinant protein toward fluorodifen; assay type: biochemical; conditions: recombinant enzyme, ±SE, n=2; for GST activity toward fluorodifen, GSH: thiol GSH; for GST activity toward fluorodifen, hGSH: thiol hGSH
Procedure: as §2

[9] = GST activity of purified recombinant protein toward CDNB; assay type: biochemical; conditions: recombinant enzyme, ±SE, n=2; for GST activity toward CDNB, GSH: thiol GSH; for GST activity toward CDNB, hGSH: thiol hGSH
Procedure: as §2

Molecule | Vmax [1] [pkats/mg hGS] | Km [2] [mM] | Km [3] [mM] | GST activity toward acifluorfen, GSH [4] [pkat mg-1] | GST activity toward acifluorfen, hGSH [4] [pkat mg-1] | GST activity toward metolachlor, GSH [5] [pkat mg-1] | GST activity toward metolachlor, hGSH [5] [pkat mg-1] | GST activity toward fomesafen, GSH [6] [pkat mg-1] | GST activity toward fomesafen, hGSH [6] [pkat mg-1] | GST activity toward acetochlor, GSH [7] [pkat mg-1] | GST activity toward fluorodifen, GSH [8] [pkat mg-1] | GST activity toward fluorodifen, hGSH [8] [pkat mg-1] | GST activity toward CDNB, GSH [9] [nkat mg-1] | GST activity toward CDNB, hGSH [9] [nkat mg-1] | GST activity toward acetochlor, hGSH [7] [pkat mg-1]
NCCC(=O)O [β-alanine] | 42250 ± 3173 |  |  |  |  |  |  |  |  |  |  |  |  |  | 
NCC(=O)O [Glycine] | 3300 ± 341 |  |  |  |  |  |  |  |  |  |  |  |  |  | 
B1 |  | 54.9 ± 18.7 | 0.84 ± 0.19 |  |  |  |  |  |  |  |  |  |  |  | 
B2 |  |  |  | 123.0 | 1350 | 312.0 | 264.5 | 110 | 6250 | 420.0 | 360.5 | 602.5 | 82.9 | 189.0 | 
B3 |  |  |  |  | 31.1 | 142.0 | 95.5 | 27.1 | 350.5 | 352.5 |  | 19.3 | 18.7 | 19.0 | 391.0
B4 |  |  |  | 152.5 | 238.5 | 177.5 | 67.5 | 213.6 | 484.6 | 190.5 | 1150 | 1350 | 59.2 | 59.2 | 11.0
B5 |  |  |  | 7.5 | 23.2 | 253.0 | 191.5 | 21.3 | 201.6 | 418.0 | 78.2 | 68.0 | 24.9 | 10.3 | 143.0
